Key:
[1] = target: HIV-1 integrase (IN) (HIV-1)
[2] = target: HIV-1 integrase (IN) (HIV-1); remark: listed apart in the source
[3] = target: HIV-1 integrase (IN) (HIV-1); assay: cross-linking

Substance | 3'-P IC50 (in vitro IN 3'-processing assay; data not shown) [1] | ST IC50 (in vitro IN strand transfer assay; data not shown) [1] | 3'-P IC50 (in vitro IN 3'-processing assay) [2] | ST IC50 (in vitro IN strand transfer assay) [2] | stoichiometry N [3]
Vpr (69–75) peptide with the amino-terminal Phe (Vpr69) replaced with Glu (from UniProt P12520 69-75) | > 111 µM | > 111 µM | – | – | –
peptide 1a (FIHFRIG) | – | – | 17.6 µM | 1.3 µM | –
peptide 2a (FIHFRIA) | – | – | > 111 µM | 34.7 µM | –
peptide 2b (FIHFRIA-amide) | – | – | > 111 µM | 60.6 µM | –
peptide 2c (Ac-FIHFRIA-amide) | – | – | 74.5 µM | 30.4 µM | –
peptide 3a (FIHFRAG) | – | – | 66.5 µM | 22.4 µM | –
peptide 3b (FIHFRAG-amide) | – | – | > 111 µM | > 111 µM | –
peptide 3c (Ac-FIHFRAG-amide) | – | – | 208 µM | 28 µM | –
peptide 4a (FIHFAIG) | – | – | > 111 µM | > 111 µM | –
peptide 4b (FIHFAIG-amide) | – | – | > 111 µM | > 111 µM | –
peptide 4c (Ac-FIHFAIG-amide) | – | – | > 333 µM | 81 µM | –
peptide 5a (FIHARIG) | – | – | > 111 µM | 46.6 µM | –
peptide 5b (FIHARIG-amide) | – | – | > 111 µM | > 111 µM | –
peptide 5c (Ac-FIHARIG-amide) | – | – | > 333 µM | 117 µM | –
peptide 6a (FIAFRIG) | – | – | 17.4 µM | 6.7 µM | –
peptide 6b (FIAFRIG-amide) | – | – | 95.4 µM | 35 µM | –
peptide 6c (Ac-FIAFRIG-amide) | – | – | 94 µM | 3.5 µM | –
peptide 7a (FAHFRIG) | – | – | > 111 µM | 73.5 µM | –
peptide 7b (FAHFRIG-amide) | – | – | > 111 µM | > 111 µM | –
peptide 7c (Ac-FAHFRIG-amide) | – | – | > 333 µM | 127 µM | –
peptide 8a (AIHFRIG) | – | – | 86.3 µM | 22.7 µM | –
peptide 8b (AIHFRIG-amide) | – | – | > 111 µM | > 111 µM | –
peptide 8c (Ac-AIHFRIG-amide) | – | – | > 333 µM | 46 µM | –
peptide 9a (FIHFRBG) | – | – | 20 µM | 4.3 µM | –
peptide 10a (FIHFBIG) | – | – | > 333 µM | 48 µM | –
peptide 11a (FIHBRIG) | – | – | 34 µM | 4.2 µM | –
peptide 12a (FIBFRIG) | – | – | 6.5 µM | 2.2 µM | –
peptide 13a (FBHFRIG) | – | – | 37 µM | 20 µM | –
peptide 14a (BIHFRIG) | – | – | 7.2 µM | 2.1 µM | –
peptide 15 (Biotin-linker-BIHFRIG) | – | – | 32 µM | 2.3 µM | 1

From PMC6222646, “HIV-1 Integrase-Targeted Short Peptides Derived from a Viral Protein R Sequence” (Molecules : A Journal of Synthetic Chemistry and Natural …, 2018)
